{"source": "patent US20260226524A1", "about": "“GLUTAMINE SYNTHETASE MARKER FOR RECOMBINANT EXPRESSION” (priority 2023, published 2026)", "molecules": {"B1": {"name": "vesper bat GS: Pipistrellus kuhlii glutamine synthetase, SEQ ID NO: 8 (nucleotide SEQ ID NO: 17), used as selectable marker (protein, listed as Pipistrellus kuhlii)", "chain": "MSTSASSQLNKGIKQMYMSLPQGDKVLAMYIWIDGTGEGLRCKTRTLDSEPKSIDELPEWNFDGSSTMQSEGSNSDMYLIPVAMFRDPFRKDPNKLIFCEVFKYNHKPAETNLRYTCKRIMDMVSNQHPWFGMEQEYTLMGTDGHPFGWPSNGFPGPQGPYYCGVGADRAYGRDIVEAHYRACLYAGIKIGGTNAEVMPAQWEFQIGPCEGIEMGDHLWVARFILHRVCEDFGVIATFDPKPIPGNWNGAGCHTNFSTKAMREENGLKYIEESIERLSKRHQYHIRAYDPKGGQDNARRLTGFHETSNINDFSAGVANRSASIRIPRAVGQEKKGYFEDRRPSANCDPFAVTEALIRTCLLNETGDEPFQYKN", "modifications": "Vesper bat GS"}}, "key": {"[1]": {"test_system": "Chinese Hamster Ovary CHO-K1 (CCL-61) host cell", "assay": "Bio-Layer Interferometry (Octet) analysis of denosumab expression in supernatants of cell pools selected with GS markers", "type": "cell-based", "conditions": "50 μM MSX", "description": "Vector design: Nearly all selectable marker currently used in GS system is Cricetulus griseus-derived GS.\n(§1) After random integration, GS expression in each individual cell was evaluated by monitoring UnaG level using flow cytometry. Denosumab here served as the secreted reporter for assessing titers using selectable glutamine synthetase markers from different species. The vectors differed from one another by the GS-coding sequences, which were derived from Chinese hamster (Cricetulus griseus), koala (Phascolarctos cinerecus), vesper bat (Pipistrellus kuhlii), gerbil (Meriones unguiculatus), ostrich (Struthio camelus australis), junglefowl (Gallus gallus), pigeon (Columbia Livia), and snake (Pseudonaja textilis), respectively.\n(§2) Electroporation and cell screening: Expression vectors described above were first linearized by the restriction endonuclease Pvul (there was one Pvul site in the ampicillin resistant gene). Then linearized vectors were introduced into the host cell using cell electroporator (Lonza Nuleofector 2b). The host cell was derived from ATCC wild-type Chinese Hamster Ovary CHO-K1 (CCL-61) and adapted to serum-free suspension culture at Shanghai ZhenGe Biotech Co. Ltd. 24 hours post electroporation, cell pools were plated into culture flasks or 96-well plates (approximately 1, 200 cells/well, 300 wells per condition) in the absence of or presence of MSX (50 μM)."}, "[2]": {"test_system": "Chinese Hamster Ovary CHO-K1 (CCL-61) host cell", "assay": "Flow cytometry analysis of GS expression via UnaG fluorescence in electroporated cell pools", "type": "cell-based", "conditions": "about 3 weeks post-seeding, MSX selection, FIGS. 3A-3B", "source_text": "Vector design: Nearly all selectable marker currently used in GS system is Cricetulus griseus-derived GS. To investigate whether the GS from other species further improve titer or screening efficiency, a set of vectors were designed as described below: • a sequence coding for an eel green fluorescent protein UnaG, a 2A self-cleaving peptide and a glutamine synthetase, placed under the control of the SV40 promoter; • two expression cassettes, in which the sequences coding for the heavy chain and light chain of a human anti-RANKL antibody denosumab were placed under the control of CMV promoters, respectively; • a sequence coding for a protein conferring resistance to ampicillin, for use in prokaryotic cells; and • a prokaryotic origin of replication.\nas §1, with “The 2A self-cleaving peptide allowed relatively equal molar expression of the two products separated by it, namely, the green fluorescent protein UnaG and glutamine synthetase. After” for “After”\nas §2\nFlow cytometry analysis of GS expression: About 3 weeks post-seeding, cell pools electroporated with GS gene from indicated species were analyzed using Attune NxT flow cytometer (FIGS. 3A-3C). […] As shown, when the GS from Chinese Hamster was used as the selectable marker, most tested cells (>98%) remained UnaG “negative” in the presence of the MSX, indicating low selection efficiency."}}, "data": [{"molecule": "B1", "values": [{"measurement": "pools expressed detectable denosumab (>0.125 ug/mL)", "setting": "[1]; Day 20, among 300 seeded pools in 96-well plates, GS used as selectable marker", "value": 94.0, "unit": "%"}, {"measurement": "median expression value of denosumab of positive pools", "setting": "[1]; Day 20, positive pools (>0.125 ug/mL), Octet ProA biosensor", "value": 3.39, "unit": "µg/mL"}, {"measurement": "UnaG expression of cells (selection efficiency)", "setting": "[2]", "value": "significant amounts of cells showed positive UnaG expression"}]}]}
